Reference: patent publication US20150344570A1 (published 2015)

B1: GpH7-B3 variant P238_16H/GpL16-k0 (antibody, human IgG1, kappa)
heavy: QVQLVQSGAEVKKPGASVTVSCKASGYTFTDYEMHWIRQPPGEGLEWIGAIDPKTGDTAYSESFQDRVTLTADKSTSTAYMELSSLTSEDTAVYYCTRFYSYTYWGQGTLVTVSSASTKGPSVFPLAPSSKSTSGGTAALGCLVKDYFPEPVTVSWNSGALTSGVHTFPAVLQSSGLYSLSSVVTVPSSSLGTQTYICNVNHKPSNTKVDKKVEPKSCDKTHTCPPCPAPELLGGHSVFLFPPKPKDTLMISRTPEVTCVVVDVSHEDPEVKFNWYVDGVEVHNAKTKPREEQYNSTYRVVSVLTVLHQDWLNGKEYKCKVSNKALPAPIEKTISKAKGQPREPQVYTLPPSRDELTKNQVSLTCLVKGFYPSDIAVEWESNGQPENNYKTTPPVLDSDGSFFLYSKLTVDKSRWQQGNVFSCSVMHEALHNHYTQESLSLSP
light: DIVMTQSPLSLPVTPGEPASISCQASESLVHSNRNTYLHWYLQKPGQSPQLLIYKVSNRFSGVPDRFSGSGSGTDFTLKISRVEAEDVGVYYCSQNTHVPPTFGQGTKVEIERTVAAPSVFIFPPSDEQLKSGTASVVCLLNNFYPREAKVQWKVDNALQSGNSQESVTEQDSKDSTYSLSSTLTLSKADYEKHKVYACEVTHQGLSSPVTKSFNRGEC
notes: also called Ho Ab P238_16H
B2: GpH7-B3 variant P238_19Q/GpL16-k0 (antibody, human IgG1, kappa)
heavy: not shown
light: B1 light
notes: also called Ho Ab P238_19Q
B3: GpH7-B3 variant P238_20W/GpL16-k0 (antibody, human IgG1, kappa)
heavy: not shown
light: B1 light
notes: also called Ho Ab P238_20W
B4: GpH7-B3 variant P271_09D/GpL16-k0 (antibody, human IgG1, kappa)
heavy: not shown
light: B1 light
notes: also called Ho Ab P271_09D
B5: GpH7-B3 variant P271_10E/GpL16-k0 (antibody, human IgG1, kappa)
heavy: not shown
light: B1 light
notes: also called Ho Ab P271_10E
B6: GpH7-B3 variant P331_03V/GpL16-k0 (antibody, human IgG1, kappa)
heavy: not shown
light: B1 light
notes: also called Ho Ab P331_03V
B7: GpH7-B3 variant P331_06M/GpL16-k0 (antibody, human IgG1, kappa)
heavy: not shown
light: B1 light
notes: also called Ho Ab P331_06M
B8: GpH7-B3 variant P331_07I/GpL16-k0 (antibody, human IgG1, kappa)
heavy: not shown
light: B1 light
notes: also called Ho Ab P331_07I
B9: GpH7-B3 variant P331_10E/GpL16-k0 (antibody, human IgG1, kappa)
heavy: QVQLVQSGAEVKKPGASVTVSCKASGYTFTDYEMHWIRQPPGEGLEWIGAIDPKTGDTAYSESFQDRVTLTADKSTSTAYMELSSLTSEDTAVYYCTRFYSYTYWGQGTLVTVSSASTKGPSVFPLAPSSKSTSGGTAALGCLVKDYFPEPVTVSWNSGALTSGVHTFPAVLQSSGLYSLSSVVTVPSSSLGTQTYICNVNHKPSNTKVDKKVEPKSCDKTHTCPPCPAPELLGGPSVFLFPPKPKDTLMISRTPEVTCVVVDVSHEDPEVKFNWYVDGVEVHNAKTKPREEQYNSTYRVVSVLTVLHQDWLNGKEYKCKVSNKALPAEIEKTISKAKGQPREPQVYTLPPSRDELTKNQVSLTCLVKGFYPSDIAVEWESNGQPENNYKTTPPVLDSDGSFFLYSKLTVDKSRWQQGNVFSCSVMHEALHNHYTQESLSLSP
light: B1 light
notes: also called Ho Ab P331_10E
B10: GpH7-B3 variant P331_15Y/GpL16-k0 (antibody, human IgG1, kappa)
heavy: not shown
light: B1 light
notes: also called Ho Ab P331_15Y
B11: GpH7-B3 variant P331_16H/GpL16-k0 (antibody, human IgG1, kappa)
heavy: not shown
light: B1 light
notes: also called Ho Ab P331_16H
B12: GpH7-B3 variant P331_20W/GpL16-k0 (antibody, human IgG1, kappa)
heavy: not shown
light: B1 light
notes: also called Ho Ab P331_20W
B13: GpH7-B3 variant S239_03V/GpL16-k0 (antibody, human IgG1, kappa)
heavy: not shown
light: B1 light
notes: also called Ho Ab S239_03V
B14: GpH7-B3 variant S239_05P/GpL16-k0 (antibody, human IgG1, kappa)
heavy: not shown
light: B1 light
notes: also called Ho Ab S239_05P
B15: GpH7-B3 variant S239_06M/GpL16-k0 (antibody, human IgG1, kappa)
heavy: not shown
light: B1 light
notes: also called Ho Ab S239_06M
B16: GpH7-B3 variant S239_10E/GpL16-k0 (antibody, human IgG1, kappa)
heavy: not shown
light: B1 light
notes: also called Ho Ab S239_10E
B17: GpH7-B3 variant S267_01G/GpL16-k0 (antibody, human IgG1, kappa)
heavy: not shown
light: B1 light
notes: also called Ho Ab S267_01G
B18: GpH7-B3 variant S267_06M/GpL16-k0 (antibody, human IgG1, kappa)
heavy: not shown
light: B1 light
notes: also called Ho Ab S267_06M
B19: GpH7-B3 variant S267_19Q/GpL16-k0 (antibody, human IgG1, kappa)
heavy: not shown
light: B1 light
notes: also called Ho Ab S267_19Q
B20: GpH7-B3 variant S298_06M/GpL16-k0 (antibody, human IgG1, kappa)
heavy: not shown
light: B1 light
notes: also called Ho Ab S298_06M
B21: GpH7-B3 variant S324_06M/GpL16-k0 (antibody, human IgG1, kappa)
heavy: not shown
light: B1 light
notes: also called Ho Ab S324_06M
B22: GpH7-B3 variant S337_07I/GpL16-k0 (antibody, human IgG1, kappa)
heavy: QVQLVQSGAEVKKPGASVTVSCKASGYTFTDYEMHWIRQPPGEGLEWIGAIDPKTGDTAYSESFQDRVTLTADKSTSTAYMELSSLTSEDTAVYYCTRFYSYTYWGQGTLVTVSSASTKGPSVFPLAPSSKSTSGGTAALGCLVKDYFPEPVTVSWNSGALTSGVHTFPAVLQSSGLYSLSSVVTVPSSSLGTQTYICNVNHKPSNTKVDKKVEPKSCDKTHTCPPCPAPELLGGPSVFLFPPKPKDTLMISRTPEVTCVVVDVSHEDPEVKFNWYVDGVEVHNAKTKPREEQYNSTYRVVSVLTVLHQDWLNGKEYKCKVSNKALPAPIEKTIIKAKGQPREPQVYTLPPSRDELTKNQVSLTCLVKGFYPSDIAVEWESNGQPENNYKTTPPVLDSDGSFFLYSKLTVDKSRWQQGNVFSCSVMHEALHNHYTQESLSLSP
light: B1 light
notes: also called Ho Ab S337_07I
B23: GpH7-B3 variant S337_08L/GpL16-k0 (antibody, human IgG1, kappa)
heavy: not shown
light: B1 light
notes: also called Ho Ab S337_08L
B24: GpH7-B3 variant S337_15Y/GpL16-k0 (antibody, human IgG1, kappa)
heavy: not shown
light: B1 light
notes: also called Ho Ab S337_15Y
B25: GpH7-B3 variant S337_16H/GpL16-k0 (antibody, human IgG1, kappa)
heavy: not shown
light: B1 light
notes: also called Ho Ab S337_16H
B26: GpH7-B3 variant S337_18N/GpL16-k0 (antibody, human IgG1, kappa)
heavy: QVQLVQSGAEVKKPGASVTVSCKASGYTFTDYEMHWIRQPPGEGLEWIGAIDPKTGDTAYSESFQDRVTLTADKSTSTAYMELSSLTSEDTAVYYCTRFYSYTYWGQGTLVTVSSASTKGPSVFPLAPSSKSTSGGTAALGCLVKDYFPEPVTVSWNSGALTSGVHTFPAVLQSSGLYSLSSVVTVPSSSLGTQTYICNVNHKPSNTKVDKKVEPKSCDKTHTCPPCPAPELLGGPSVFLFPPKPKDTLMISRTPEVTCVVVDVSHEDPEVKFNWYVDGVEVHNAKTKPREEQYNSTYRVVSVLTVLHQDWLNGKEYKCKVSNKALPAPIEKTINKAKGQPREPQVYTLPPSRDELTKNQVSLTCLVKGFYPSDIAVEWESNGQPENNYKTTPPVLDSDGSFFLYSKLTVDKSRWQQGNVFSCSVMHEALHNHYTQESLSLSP
light: B1 light
notes: also called Ho Ab S337_18N
B27: GpH7-B3 variant S337_20W/GpL16-k0 (antibody, human IgG1, kappa)
heavy: not shown
light: B1 light
notes: also called Ho Ab S337_20W
B28: GpH7-B3 variant T335_07I/GpL16-k0 (antibody, human IgG1, kappa)
heavy: not shown
light: B1 light
notes: also called Ho Ab T335_07I
B29: GpH7-B3 variant T335_10E/GpL16-k0 (antibody, human IgG1, kappa)
heavy: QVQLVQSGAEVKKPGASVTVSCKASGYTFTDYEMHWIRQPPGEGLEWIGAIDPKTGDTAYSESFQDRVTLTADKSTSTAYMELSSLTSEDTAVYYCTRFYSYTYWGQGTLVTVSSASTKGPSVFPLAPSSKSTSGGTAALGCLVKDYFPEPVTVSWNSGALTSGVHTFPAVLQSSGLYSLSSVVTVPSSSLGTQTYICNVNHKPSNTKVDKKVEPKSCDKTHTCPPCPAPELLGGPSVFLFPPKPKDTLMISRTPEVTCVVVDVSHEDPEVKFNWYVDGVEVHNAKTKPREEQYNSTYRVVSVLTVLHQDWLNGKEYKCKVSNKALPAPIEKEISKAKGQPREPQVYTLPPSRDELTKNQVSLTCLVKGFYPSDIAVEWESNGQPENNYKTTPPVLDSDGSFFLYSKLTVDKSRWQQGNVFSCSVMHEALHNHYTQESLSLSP
light: B1 light
notes: also called Ho Ab T335_10E
B30: GpH7-B3 variant T335_13S/GpL16-k0 (antibody, human IgG1, kappa)
heavy: not shown
light: B1 light
notes: also called Ho Ab T335_13S
B31: GpH7-B3 variant T335_15Y/GpL16-k0 (antibody, human IgG1, kappa)
heavy: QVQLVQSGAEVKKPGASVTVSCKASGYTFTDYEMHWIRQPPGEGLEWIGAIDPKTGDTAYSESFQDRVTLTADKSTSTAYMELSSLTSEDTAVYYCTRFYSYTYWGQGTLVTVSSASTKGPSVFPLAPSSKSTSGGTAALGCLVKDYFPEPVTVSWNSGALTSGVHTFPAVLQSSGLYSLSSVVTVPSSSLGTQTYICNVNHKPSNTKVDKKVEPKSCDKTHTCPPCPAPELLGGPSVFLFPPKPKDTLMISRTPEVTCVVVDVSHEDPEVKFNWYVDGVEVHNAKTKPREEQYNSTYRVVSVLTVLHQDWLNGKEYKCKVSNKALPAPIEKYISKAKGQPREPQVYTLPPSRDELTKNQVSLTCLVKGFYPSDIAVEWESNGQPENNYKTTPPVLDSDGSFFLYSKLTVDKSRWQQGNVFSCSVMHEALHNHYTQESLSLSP
light: B1 light
notes: also called Ho Ab T335_15Y
B32: GpH7-B3 variant T335_16H/GpL16-k0 (antibody, human IgG1, kappa)
heavy: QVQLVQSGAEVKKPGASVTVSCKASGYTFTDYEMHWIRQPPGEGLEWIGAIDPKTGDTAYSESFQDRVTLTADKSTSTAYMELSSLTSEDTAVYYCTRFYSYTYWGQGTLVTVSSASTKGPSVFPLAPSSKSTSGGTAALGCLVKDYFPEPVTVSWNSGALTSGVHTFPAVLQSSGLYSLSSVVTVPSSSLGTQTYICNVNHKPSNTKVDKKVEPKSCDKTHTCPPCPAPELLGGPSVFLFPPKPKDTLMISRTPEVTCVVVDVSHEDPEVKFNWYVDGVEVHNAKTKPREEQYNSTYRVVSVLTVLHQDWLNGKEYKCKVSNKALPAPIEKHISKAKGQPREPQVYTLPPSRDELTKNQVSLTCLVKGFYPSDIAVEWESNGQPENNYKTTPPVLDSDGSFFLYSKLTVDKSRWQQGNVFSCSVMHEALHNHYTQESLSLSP
light: B1 light
notes: also called Ho Ab T335_16H
B33: GpH7-B3 variant T335_18N/GpL16-k0 (antibody, human IgG1, kappa)
heavy: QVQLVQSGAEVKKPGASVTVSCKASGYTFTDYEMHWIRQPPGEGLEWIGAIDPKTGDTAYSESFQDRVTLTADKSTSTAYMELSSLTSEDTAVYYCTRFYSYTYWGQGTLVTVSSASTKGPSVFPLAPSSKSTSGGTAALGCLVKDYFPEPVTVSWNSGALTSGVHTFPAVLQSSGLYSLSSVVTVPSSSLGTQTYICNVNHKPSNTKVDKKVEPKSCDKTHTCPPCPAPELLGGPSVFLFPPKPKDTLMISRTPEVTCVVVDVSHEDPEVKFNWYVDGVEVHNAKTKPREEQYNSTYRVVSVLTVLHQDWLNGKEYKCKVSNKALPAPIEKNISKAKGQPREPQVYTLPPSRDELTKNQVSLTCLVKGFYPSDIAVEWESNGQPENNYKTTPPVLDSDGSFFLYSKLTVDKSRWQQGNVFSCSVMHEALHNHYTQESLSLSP
light: B1 light
notes: also called Ho Ab T335_18N
B34: GpH7-B3 variant T335_19Q/GpL16-k0 (antibody, human IgG1, kappa)
heavy: not shown
light: B1 light
notes: also called Ho Ab T335_19Q
B35: GpH7-B3 variant T335_20W/GpL16-k0 (antibody, human IgG1, kappa)
heavy: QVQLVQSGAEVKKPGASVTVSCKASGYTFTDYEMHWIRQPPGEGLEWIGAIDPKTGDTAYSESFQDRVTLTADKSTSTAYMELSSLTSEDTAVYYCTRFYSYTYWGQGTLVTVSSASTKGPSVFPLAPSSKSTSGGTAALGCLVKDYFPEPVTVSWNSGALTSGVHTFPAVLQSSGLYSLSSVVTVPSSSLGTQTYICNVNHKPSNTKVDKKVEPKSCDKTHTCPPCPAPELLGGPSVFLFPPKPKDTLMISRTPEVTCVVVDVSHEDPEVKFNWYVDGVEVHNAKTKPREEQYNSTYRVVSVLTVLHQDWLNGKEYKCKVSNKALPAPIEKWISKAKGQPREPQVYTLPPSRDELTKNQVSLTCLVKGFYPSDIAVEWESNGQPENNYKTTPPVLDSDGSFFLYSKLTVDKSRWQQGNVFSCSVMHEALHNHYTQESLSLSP
light: B1 light
notes: also called Ho Ab T335_20W
B36: GpH7-B3 variant V266_06M/GpL16-k0 (antibody, human IgG1, kappa)
heavy: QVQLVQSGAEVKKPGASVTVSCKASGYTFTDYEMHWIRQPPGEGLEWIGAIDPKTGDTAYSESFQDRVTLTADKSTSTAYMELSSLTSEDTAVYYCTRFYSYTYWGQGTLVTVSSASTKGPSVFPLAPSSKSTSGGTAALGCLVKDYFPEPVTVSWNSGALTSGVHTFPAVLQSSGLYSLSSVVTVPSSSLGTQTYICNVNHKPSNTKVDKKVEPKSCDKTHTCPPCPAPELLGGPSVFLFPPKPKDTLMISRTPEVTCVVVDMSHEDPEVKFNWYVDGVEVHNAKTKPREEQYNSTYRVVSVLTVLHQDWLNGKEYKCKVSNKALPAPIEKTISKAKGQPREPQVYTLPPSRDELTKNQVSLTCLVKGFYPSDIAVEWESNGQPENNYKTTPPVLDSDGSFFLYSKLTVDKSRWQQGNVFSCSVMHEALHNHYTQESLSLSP
light: B1 light
notes: also called Ho Ab V266_06M
B37: GpH7-B3 variant Y296_20W/GpL16-k0 (antibody, human IgG1, kappa)
heavy: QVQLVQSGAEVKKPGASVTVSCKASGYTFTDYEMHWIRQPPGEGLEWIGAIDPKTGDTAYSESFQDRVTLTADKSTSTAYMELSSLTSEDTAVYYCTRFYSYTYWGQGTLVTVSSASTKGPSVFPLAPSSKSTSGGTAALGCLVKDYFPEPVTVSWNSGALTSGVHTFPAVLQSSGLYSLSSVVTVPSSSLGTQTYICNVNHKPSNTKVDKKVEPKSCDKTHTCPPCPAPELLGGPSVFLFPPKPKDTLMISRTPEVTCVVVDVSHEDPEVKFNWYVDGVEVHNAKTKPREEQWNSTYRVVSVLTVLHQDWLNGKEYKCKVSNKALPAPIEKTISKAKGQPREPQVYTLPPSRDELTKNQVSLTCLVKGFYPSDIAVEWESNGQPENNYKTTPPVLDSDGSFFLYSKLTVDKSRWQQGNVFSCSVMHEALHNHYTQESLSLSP
light: B1 light
notes: also called Ho Ab Y296_20W
B38: GpH7-A5/GpH7-B3 variant G237_02A/GpL16-k0 (antibody, human IgG1, kappa)
heavy 1: not shown
heavy 2: not shown
light: B1 light
notes: also called He Ab G237_02A
B39: GpH7-A5/GpH7-B3 variant A327_07I/GpL16-k0 (antibody, human IgG1, kappa)
heavy 1: not shown
heavy 2: not shown
light: B1 light
notes: also called He Ab A327_07I
B40: GpH7-A5/GpH7-B3 variant A327_18N/GpL16-k0 (antibody, human IgG1, kappa)
heavy 1: not shown
heavy 2: not shown
light: B1 light
notes: also called He Ab A327_18N
B41: GpH7-A5/GpH7-B3 variant A330_01G/GpL16-k0 (antibody, human IgG1, kappa)
heavy 1: not shown
heavy 2: not shown
light: B1 light
notes: also called He Ab A330_01G
B42: GpH7-A5/GpH7-B3 variant A330_05P/GpL16-k0 (antibody, human IgG1, kappa)
heavy 1: not shown
heavy 2: not shown
light: B1 light
notes: also called He Ab A330_05P
B43: GpH7-A5/GpH7-B3 variant G237_04F/GpL16-k0 (antibody, human IgG1, kappa)
heavy 1: not shown
heavy 2: not shown
light: B1 light
notes: also called He Ab G237_04F
B44: GpH7-A5/GpH7-B3 variant G237_06M/GpL16-k0 (antibody, human IgG1, kappa)
heavy 1: not shown
heavy 2: not shown
light: B1 light
notes: also called He Ab G237_06M

Target: T1, FcγRIIb extracellular domain with C-terminal His tag (human, UniProt P31994 43-217)
T1 construct: extracellular domain; also called FcgRIIb; 2b
T1 sequence (looked up): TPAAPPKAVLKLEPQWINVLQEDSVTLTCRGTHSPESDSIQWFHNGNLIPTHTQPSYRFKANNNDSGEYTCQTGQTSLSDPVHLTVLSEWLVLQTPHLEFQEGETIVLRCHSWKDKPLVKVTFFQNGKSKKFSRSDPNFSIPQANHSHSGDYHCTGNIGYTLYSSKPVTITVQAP
Test: SPR (Biacore), relative binding

Binder | Ho/Con_2b | He/Con_2b
B1 | 18.8 % of HoCon Ab GpH7-B3/GpL16-k0 | –
B2 | 42.7 % of HoCon Ab GpH7-B3/GpL16-k0 | –
B3 | 12.6 % of HoCon Ab GpH7-B3/GpL16-k0 | –
B4 | 100 % of HoCon Ab GpH7-B3/GpL16-k0 | –
B5 | 95 % of HoCon Ab GpH7-B3/GpL16-k0 | –
B6 | 86.6 % of HoCon Ab GpH7-B3/GpL16-k0 | –
B7 | 71.5 % of HoCon Ab GpH7-B3/GpL16-k0 | –
B8 | 63.3 % of HoCon Ab GpH7-B3/GpL16-k0 | –
B9 | 92.3 % of HoCon Ab GpH7-B3/GpL16-k0 | –
B10 | 111 % of HoCon Ab GpH7-B3/GpL16-k0 | –
B11 | 100 % of HoCon Ab GpH7-B3/GpL16-k0 | –
B12 | 111 % of HoCon Ab GpH7-B3/GpL16-k0 | –
B13 | 108 % of HoCon Ab GpH7-B3/GpL16-k0 | –
B14 | 61 % of HoCon Ab GpH7-B3/GpL16-k0 | –
B15 | 84.3 % of HoCon Ab GpH7-B3/GpL16-k0 | –
B16 | 175 % of HoCon Ab GpH7-B3/GpL16-k0 | –
B17 | 97 % of HoCon Ab GpH7-B3/GpL16-k0 | –
B18 | 187 % of HoCon Ab GpH7-B3/GpL16-k0 | –
B19 | 185 % of HoCon Ab GpH7-B3/GpL16-k0 | –
B20 | 101 % of HoCon Ab GpH7-B3/GpL16-k0 | –
B21 | 104 % of HoCon Ab GpH7-B3/GpL16-k0 | –
B22 | 96.6 % of HoCon Ab GpH7-B3/GpL16-k0 | –

Binder | Ho/Con_2b | He/Con_2b
B23 | 90.7 % of HoCon Ab GpH7-B3/GpL16-k0 | –
B24 | 93.4 % of HoCon Ab GpH7-B3/GpL16-k0 | –
B25 | 103 % of HoCon Ab GpH7-B3/GpL16-k0 | –
B26 | 98 % of HoCon Ab GpH7-B3/GpL16-k0 | –
B27 | 99.6 % of HoCon Ab GpH7-B3/GpL16-k0 | –
B28 | 104 % of HoCon Ab GpH7-B3/GpL16-k0 | –
B29 | 108 % of HoCon Ab GpH7-B3/GpL16-k0 | –
B30 | 95.2 % of HoCon Ab GpH7-B3/GpL16-k0 | –
B31 | 104 % of HoCon Ab GpH7-B3/GpL16-k0 | –
B32 | 97.2 % of HoCon Ab GpH7-B3/GpL16-k0 | –
B33 | 96.1 % of HoCon Ab GpH7-B3/GpL16-k0 | –
B34 | 97.3 % of HoCon Ab GpH7-B3/GpL16-k0 | –
B35 | 94.4 % of HoCon Ab GpH7-B3/GpL16-k0 | –
B36 | 231 % of HoCon Ab GpH7-B3/GpL16-k0 | –
B37 | 103 % of HoCon Ab GpH7-B3/GpL16-k0 | –
B38 | – | 124 % of HeCon Ab GpH7-A5/GpH7-B3/GpL16-k0
B39 | – | 127 % of HeCon Ab GpH7-A5/GpH7-B3/GpL16-k0
B40 | – | 113 % of HeCon Ab GpH7-A5/GpH7-B3/GpL16-k0
B41 | – | 104 % of HeCon Ab GpH7-A5/GpH7-B3/GpL16-k0
B42 | – | 137 % of HeCon Ab GpH7-A5/GpH7-B3/GpL16-k0
B43 | – | 149 % of HeCon Ab GpH7-A5/GpH7-B3/GpL16-k0
B44 | – | 130 % of HeCon Ab GpH7-A5/GpH7-B3/GpL16-k0
